Data published in PMC5932954, “Evaluation of Fluorine-18-Labeled α1(I)-N-Telopeptide Analogs as Substrate-Based Radiotracers for PET Imaging of Melanoma-Associated Lysyl Oxidase” (Frontiers in Chemistry, 2018).
Where a SMILES comes first, the peptide text is derived from it. [ ]: non-standard residue; d: D form. The star is where a group is joined. Benzoyl(4-F) = O=C(c1ccc(F)cc1)*; pGlu = O=C1CC[C@@H](C(=O)O)N1

Experiments:
[1] = target: T1, bovine type I atelocollagen (Bos taurus, UniProt P02453+P02465, DEL1103-1117); assay: SPR binding of telopeptide derivatives to immobilized atelocollagen; settings: for ka1: SPR Biacore T100, CM5 chip, analyte 45 to 950 μM, HEPES buffer pH 7.4, 25°C; for ka1 / ka2 / kd1 / kd2: two-state reaction model, mean of n = 5; for ka2 / kd1 / kd2 / Kd / kon / koff: SPR; for ka2 / kd1 / kd2 / Kd: pH 7.4, 25°C; for Kd: calculated from the individual rate constants (Equation 1); for Kd / kon / koff: n = 5; for kon: calculated as koff/KD (Equation 3), read-out: kon (global association rate constant to final complex); for koff: calculated from the individual rate constants (Equation 2), read-out: koff (global dissociation rate constant of final complex)
T1 construct: bovine type I atelocollagen (=pepsin-treated type I collagen; Matrix Bioscience); purchased Matrix Bioscience
T1 sequence (P02453 178-1191 limits assumed, stated change not applied): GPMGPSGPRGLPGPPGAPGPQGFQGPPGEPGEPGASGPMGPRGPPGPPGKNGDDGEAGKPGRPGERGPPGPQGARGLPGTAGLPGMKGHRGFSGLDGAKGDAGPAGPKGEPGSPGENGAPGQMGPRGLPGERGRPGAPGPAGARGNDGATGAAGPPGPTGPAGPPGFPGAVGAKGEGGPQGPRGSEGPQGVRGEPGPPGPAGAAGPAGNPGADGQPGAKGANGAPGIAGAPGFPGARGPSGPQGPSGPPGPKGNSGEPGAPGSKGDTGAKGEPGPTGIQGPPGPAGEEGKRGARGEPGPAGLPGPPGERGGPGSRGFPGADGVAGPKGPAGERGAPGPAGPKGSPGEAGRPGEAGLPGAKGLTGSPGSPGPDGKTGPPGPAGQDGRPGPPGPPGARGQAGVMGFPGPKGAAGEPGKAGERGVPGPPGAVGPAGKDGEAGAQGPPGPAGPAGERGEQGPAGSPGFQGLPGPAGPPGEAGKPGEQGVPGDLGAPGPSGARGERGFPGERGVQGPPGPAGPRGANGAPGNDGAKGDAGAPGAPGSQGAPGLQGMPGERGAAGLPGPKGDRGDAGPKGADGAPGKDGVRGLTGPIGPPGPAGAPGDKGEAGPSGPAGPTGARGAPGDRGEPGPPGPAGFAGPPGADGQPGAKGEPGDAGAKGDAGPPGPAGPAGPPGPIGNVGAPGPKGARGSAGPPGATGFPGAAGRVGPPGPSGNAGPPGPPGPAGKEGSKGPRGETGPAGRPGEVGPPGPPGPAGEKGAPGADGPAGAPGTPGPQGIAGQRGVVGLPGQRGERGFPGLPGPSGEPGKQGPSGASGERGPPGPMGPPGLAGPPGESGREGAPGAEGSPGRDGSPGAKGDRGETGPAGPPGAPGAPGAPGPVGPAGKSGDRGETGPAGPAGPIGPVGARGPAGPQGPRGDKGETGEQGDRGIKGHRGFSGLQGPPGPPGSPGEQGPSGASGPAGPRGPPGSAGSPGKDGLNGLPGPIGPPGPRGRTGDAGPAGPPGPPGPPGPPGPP
T1 sequence (P02465 89-1102 limits assumed, stated change not applied): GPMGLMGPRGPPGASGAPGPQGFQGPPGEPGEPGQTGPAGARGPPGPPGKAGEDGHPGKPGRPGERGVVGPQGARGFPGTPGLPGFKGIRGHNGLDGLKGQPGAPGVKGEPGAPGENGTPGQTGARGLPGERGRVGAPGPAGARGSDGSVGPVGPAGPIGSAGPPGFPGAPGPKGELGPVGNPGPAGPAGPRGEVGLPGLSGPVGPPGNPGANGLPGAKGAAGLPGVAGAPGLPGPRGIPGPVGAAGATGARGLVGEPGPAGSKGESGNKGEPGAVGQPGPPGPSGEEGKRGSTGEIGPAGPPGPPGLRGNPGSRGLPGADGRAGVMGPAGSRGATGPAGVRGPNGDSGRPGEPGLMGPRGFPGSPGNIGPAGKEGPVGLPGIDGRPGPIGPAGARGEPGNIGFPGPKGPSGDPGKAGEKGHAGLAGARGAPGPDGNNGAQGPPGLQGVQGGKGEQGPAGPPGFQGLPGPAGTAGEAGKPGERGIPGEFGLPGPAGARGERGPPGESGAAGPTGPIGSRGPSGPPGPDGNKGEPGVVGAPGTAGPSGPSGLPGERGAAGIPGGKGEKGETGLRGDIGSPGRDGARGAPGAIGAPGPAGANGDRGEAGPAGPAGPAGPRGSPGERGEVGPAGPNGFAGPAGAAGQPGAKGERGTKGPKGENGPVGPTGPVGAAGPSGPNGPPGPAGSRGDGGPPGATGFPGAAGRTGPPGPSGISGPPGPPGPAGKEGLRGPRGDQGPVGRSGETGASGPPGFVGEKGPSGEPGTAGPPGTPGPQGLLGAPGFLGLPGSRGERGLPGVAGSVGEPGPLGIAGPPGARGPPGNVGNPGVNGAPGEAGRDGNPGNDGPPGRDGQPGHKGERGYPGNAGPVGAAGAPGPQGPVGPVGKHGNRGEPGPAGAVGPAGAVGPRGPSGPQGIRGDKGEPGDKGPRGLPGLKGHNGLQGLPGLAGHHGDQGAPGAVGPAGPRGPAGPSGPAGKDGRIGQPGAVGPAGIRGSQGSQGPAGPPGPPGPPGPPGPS
Method: In order to probe binding of the telopeptide derivatives to atelocollagen surface plasmon resonance (SPR) measurements were performed on a T100 Biacore system (GE Healthcare) (Hoppmann et al., [2010]). In brief, bovine type I atelocollagen (=pepsin-treated type I collagen; Matrix Bioscience) was immobilized as ligand on a CM5 (carboxymethylated dextran polymer) sensor chip using EDC/NHS chemistry. About 12,000 arbitrary response (resonance) units (RU) were immobilized. Various concentrations of the analytes (1, 2, and 4a) ranging from 45 to 950 μM were analyzed. The flow buffer used was 10 mM HEPES, 3.0 mM EDTA-Na2, 0.15 M NaCl (pH 7.4) containing 0.05% surfactant P20. Association and dissociation of all analytes was followed in real-time and measured at 25°C at a flow rate of 30 μL/min. After each cycle, the surface was regenerated using 50 mM NaOH. The data were fitted to a two-state reaction model (see scheme below) including reference subtraction and blank buffer correction derived from blank runs using the Biacore Evaluation software 2.0.4.
The parameters KD, koff, and kon were calculated from the individual rate constants by the following equations (Tummino and Copeland, [2008]): […]

[2] = target: bovine type I atelocollagen (pepsin-treated bovine type I collagen) (bovine); assay: SPR; Biacore T100; bovine type I atelocollagen immobilised on a CM5 chip by EDC/NHS (about 12,000 RU); peptides as analytes, 45 to 950 μM; 10 mM HEPES, 3.0 mM EDTA-Na2, 0.15 M NaCl, pH 7.4, 0.05% surfactant P20; 25°C; 30 μL/min; two-state reaction model; KD, koff and kon calculated from the individual rate constants; settings: both partners purified

Row | Molecule | ka1 [1] [M⁻¹ s⁻¹] | ka2 [1] [s⁻¹] | kd1 [1] [s⁻¹] | kd2 [1] [s⁻¹] | Kd [1] [µM] | kon [1] [M⁻¹ s⁻¹] | koff [1] [s⁻¹] | Kd [2] [µM] | ka1 (two-state model, step 1) [2] [M⁻¹ s⁻¹] | ka2 (two-state model, step 2) [2] [s⁻¹] | kd1 (two-state model, step 1) [2] [s⁻¹] | kd2 (two-state model, step 2) [2] [s⁻¹] | koff [2] [s⁻¹] | kon [2] [M⁻¹ s⁻¹]
1 | CC[C@H](C)[C@H](NC(=O)CNC(=O)[C@@H](NC(=O)[C@H](CO)NC(=O)[C@H](CCCCN)NC(=O)[C@H](CCC(=O)O)NC(=O)[C@H](CC(=O)O)NC(=O)[C@H](Cc1ccc(O)cc1)NC(=O)CNC(=O)[C@H](Cc1ccc(O)cc1)NC(=O)[C@H](CO)NC(=O)[C@H](CC(C)C)NC(=O)[C@@H]1CCC(=O)N1)[C@@H](C)O)C(=O)N[C@@H](CO)C(=O)N[C@H](C(=O)N1CCC[C@H]1C(N)=O)C(C)C [Peptide 1, pGlu-LSYGYDEKSTGISVP-NH2, reference compound] ([pGlu]LSYGYDEKSTGISVP-NH2) | 123 | 0.00532 | 0.75 | 0.00294 | 2170 | 1.34 | 0.00291 |  |  |  |  |  |  | 
2 | {Benzoyl(4-F)}-GGGDPKGGGGG-NH2 (SMILES NCCCC[C@H](NC(=O)[C@@H]1CCCN1C(=O)[C@H](CC(=O)O)NC(=O)CNC(=O)CNC(=O)CNC(=O)c1ccc(F)cc1)C(=O)NCC(=O)NCC(=O)NCC(=O)NCC(=O)NCC(N)=O) [DPK-containing undecapeptide 4a, FBz-GGGDPKGGGGG-NH2] |  |  |  |  |  |  |  | 647 | 188 | 0.00494 | 0.268 | 0.00411 | 0.00398 | 6.15
3 | {Benzoyl(4-F)}-LSYGYDEKSTGISVP-NH2 (SMILES CC[C@H](C)[C@H](NC(=O)CNC(=O)[C@@H](NC(=O)[C@H](CO)NC(=O)[C@H](CCCCN)NC(=O)[C@H](CCC(=O)O)NC(=O)[C@H](CC(=O)O)NC(=O)[C@H](Cc1ccc(O)cc1)NC(=O)CNC(=O)[C@H](Cc1ccc(O)cc1)NC(=O)[C@H](CO)NC(=O)[C@H](CC(C)C)NC(=O)c1ccc(F)cc1)[C@@H](C)O)C(=O)N[C@@H](CO)C(=O)N[C@H](C(=O)N1CCC[C@H]1C(N)=O)C(C)C, N-terminal telopeptide of the α1 chain of type I collagen without its N-terminal pyroglutamate, which is replaced by a 4-fluorobenzoyl residue; source: synthetic peptide (microwave-assisted Fmoc solid-phase synthesis, as in Kuchar et al., 2012)) [4-fluorobenzoylated α1(I)-N-telopeptide analog (peptide 2), FBz-LSYGYDEKSTGISVP-NH2] |  |  |  |  |  |  |  | 78.8 | 57.4 | 0.0141 | 0.0631 | 0.00109 | 0.000879 | 11.2

More lines, now with the values ahead:

Row | ka1 [1] [M⁻¹ s⁻¹] | ka2 [1] [s⁻¹] | kd1 [1] [s⁻¹] | kd2 [1] [s⁻¹] | Kd [1] [µM] | kon [1] [M⁻¹ s⁻¹] | koff [1] [s⁻¹] | Kd [2] [µM] | ka1 (two-state model, step 1) [2] [M⁻¹ s⁻¹] | ka2 (two-state model, step 2) [2] [s⁻¹] | kd1 (two-state model, step 1) [2] [s⁻¹] | kd2 (two-state model, step 2) [2] [s⁻¹] | koff [2] [s⁻¹] | kon [2] [M⁻¹ s⁻¹] | Molecule
4 |  |  |  |  | 78.8 | 11.2 | 0.000879 |  |  |  |  |  |  |  | CC[C@H](C)[C@H](NC(=O)CNC(=O)[C@@H](NC(=O)[C@H](CO)NC(=O)[C@H](CCCCN)NC(=O)[C@H](CCC(=O)O)NC(=O)[C@H](CC(=O)O)NC(=O)[C@H](Cc1ccc(O)cc1)NC(=O)CNC(=O)[C@H](Cc1ccc(O)cc1)NC(=O)[C@H](CO)NC(=O)[C@H](CC(C)C)NC(=O)c1ccc(F)cc1)[C@@H](C)O)C(=O)N[C@@H](CO)C(=O)N[C@H](C(=O)N1CCC[C@H]1C(N)=O)C(C)C [Peptide 2, FBz-LSYGYDEKSTGISVP-NH2] ({Benzoyl(4-F)}-LSYGYDEKSTGISVP-NH2)
5 | 188 | 0.00494 | 0.268 | 0.00411 |  | 6.15 | 0.00398 |  |  |  |  |  |  |  | NCCCC[C@H](NC(=O)[C@@H]1CCCN1C(=O)[C@H](CC(=O)O)NC(=O)CNC(=O)CNC(=O)CNC(=O)c1ccc(F)cc1)C(=O)NCC(=O)NCC(=O)NCC(=O)NCC(=O)NCC(N)=O [Peptide 4a, FBz-GGGDPKGGGGG-NH2] ({Benzoyl(4-F)}-GGGDPKGGGGG-NH2)
6 |  |  |  |  |  |  |  | 2170 | 123 | 0.00532 | 0.75 | 0.00294 | 0.00291 | 1.34 | [pGlu]LSYGYDEKSTGISVP-NH2 (SMILES CC[C@H](C)[C@H](NC(=O)CNC(=O)[C@@H](NC(=O)[C@H](CO)NC(=O)[C@H](CCCCN)NC(=O)[C@H](CCC(=O)O)NC(=O)[C@H](CC(=O)O)NC(=O)[C@H](Cc1ccc(O)cc1)NC(=O)CNC(=O)[C@H](Cc1ccc(O)cc1)NC(=O)[C@H](CO)NC(=O)[C@H](CC(C)C)NC(=O)[C@@H]1CCC(=O)N1)[C@@H](C)O)C(=O)N[C@@H](CO)C(=O)N[C@H](C(=O)N1CCC[C@H]1C(N)=O)C(C)C, N-terminal telopeptide of the α1 chain of type I collagen; also called N-terminal telopeptide of the α1 chain of type I collagen; authentic isolated α1(I)-N-telopeptide; source: synthetic peptide (microwave-assisted Fmoc solid-phase synthesis)) [α1(I)-N-telopeptide (peptide 1), pGlu-LSYGYDEKSTGISVP-NH2]
